Reference: patent US7312045B2, “Aggrecanase-1 and -2 peptide substrates and methods” (Ortho-McNeil Pharmaceutical, Inc., priority 2002, dated 2007)
Primed or numbered codes have the meaning given here. No end group written: not given here. *: point of attachment. Dabcyl′ = CN(C)c1ccc(/N=N/c2ccc(C(=O)*)cc2)cc1

Legend:
Type in all cases: biochemical
aggrecanase-2 [1] = molecular target: T1, aggrecanase-2 (Homo sapiens, UniProt Q9UNA0); experiment: IC50 analysis for inhibition of aggrecanase-2, FasL1 FRET peptide cleavage; details: FasL1 225 μM, 60 minutes at room temperature, inhibitor 0.1 to 12.5 μM
T1 construct: made in house; host or cells: Sf9 cells (baculovirus, pFastBac1)
T1 sequence (Q9UNA0 262-482): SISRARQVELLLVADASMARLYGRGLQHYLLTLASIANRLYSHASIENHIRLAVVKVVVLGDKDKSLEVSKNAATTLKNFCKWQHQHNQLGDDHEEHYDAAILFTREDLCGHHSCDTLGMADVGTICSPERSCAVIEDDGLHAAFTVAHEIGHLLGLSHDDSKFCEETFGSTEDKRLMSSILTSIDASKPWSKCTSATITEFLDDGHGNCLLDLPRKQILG
Procedure: Aggrecanase-2 (0.5 to 1 μg of protein, 17 to 33 picomoles) was diluted in assay buffer (50 mM HEPES pH 7.5, 10 mM CaCl2, 0.1M NaCl, 0.05% Brij-35). Samples were prepared containing Inhibitor A, B or C (shown above) at final concentrations ranging from 0.1 to 12.5 μM (final DMSO concentration of 1.5%). Duplicate assays were run for each concentration of Inhibitor A, B and C (purchased from Peptides International, TAPI-0, Cat. No. INH 3850-P1) for 60 minutes at room temperature. The reaction was initiated by the addition of FasL1 peptide substrate to a final concentration of 225 μM. The reaction rates over 60 minutes at room temperature, in the absence (control) and presence of various concentrations of the inhibitor, were determined by linear regression of the data points. The reaction rate data in FIG. 4B were fitted by non-linear regression using the program Grafit (Erithacus Software).

Aggrecanase-1 = molecular target: T2, Aggrecanase-1 (Homo sapiens, UniProt O75173); experiment: Drug screening assay, aggrecanase-1 FasL1 FRET peptide cleavage; details: inhibitor 7.5 micromolar, FasL1 225 μM, 200 minutes at room temperature
T2 construct: made in house; host or cells: Sf9 cells (baculovirus, pFastBac1)
T2 sequence (O75173 213-437): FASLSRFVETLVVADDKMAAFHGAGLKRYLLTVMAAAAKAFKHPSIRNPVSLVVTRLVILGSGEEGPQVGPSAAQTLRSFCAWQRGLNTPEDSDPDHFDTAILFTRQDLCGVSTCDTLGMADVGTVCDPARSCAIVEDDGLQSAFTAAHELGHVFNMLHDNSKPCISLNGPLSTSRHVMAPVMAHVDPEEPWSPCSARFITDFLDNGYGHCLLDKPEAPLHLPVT
Procedure: Aggrecanase-1 ([…] of protein, 85 to 167 picomoles) was diluted in assay buffer (50 mM HEPES pH 7.5, 10 mM CaCl2, 0.1M NaCl, 0.05% Brij-35). Samples were prepared containing putative inhibitors A (Chen et al. Biorg. Med. Chem. Lett. 6(13):1601-1606, 1996) or B (Bailey, et al. Biorg. Med. Chem. Lett. 9(21):3165-3170, 1999), shown below, at a final concentration of 7.5 micromolar. The final % DMSO in the assay was 3% and it was determined experimentally that this concentration was not detrimental to the activity of the enzyme. The reaction was initiated by the addition of FasL1 peptide substrate to a final concentration of 225 μM and readings were taken at one-minute intervals, for a total of 200 minutes at room temperature.
The assay was always performed at enzyme and substrate concentrations where the activity was linearly related to enzyme concentration and where the increase in fluorescence (reaction rate) was linear for at least the time of the assay. From FIG. 4A, it can be seen that for kinetic analysis, the signal-to-noise ratio is effectively infinite, as no change in the background (blank, no enzyme) is observed over the time of the assay. For endpoint measurements, the enzyme and substrate concentrations could be adjusted to achieve the desired signal-to-noise ratio. […]

truncated aggrecanase-2 = molecular target: T3, truncated aggrecanase-2 (Homo sapiens, UniProt Q9UNA0); experiment: FRET peptide substrate screening, truncated aggrecanase-2; details: peptide 50 uM, 60 minutes at room temperature
T3 construct: made in house; host or cells: Sf9 cells (baculovirus, pFastBac1)
T3 sequence (Q9UNA0 262-482): T1 sequence (Q9UNA0 262-482)
Source text: (§1) Fifty-six different peptides were synthesized to test for protease activity (see Table 3 below). The peptides included a collection of substrates for other proteases, as well as a number of sequences corresponding to membrane proximal cleavage sites of various proteins postulated to be released by metalloproteases (including those published by (Roghani et al., J. Biol. Chem. 274:3531-340, 1999) for ADAM9/MDC9). In order to use the principle of fluorescence resonance energy transfer, or FRET, the peptides were labeled at the C-terminus with Dabcyl and at the N-terminus with Aedans (or vice versa). Thus cleavage of the peptides was monitored by the increase in Aedans fluorescence at 460 nm (excitation 360 nm) as a result of the decrease in proximity of the Dabcyl quencher. The assay was performed by diluting the truncated aggrecanase-1 (approximately 2.5 to 5 μg of protein, 85 to 167 picomoles, SEQ ID NO:8) or truncated aggrecanase-2 (approximately 0.5 to 1 μg of protein, 17 to 33 picomoles, SEQ ID NO:9), in assay buffer (50 mM HEPES pH 7.5, 10 mM CaCl2, 0.1M NaCl and 0.05% (w/v) Brij-35 detergent (Sigma).
(§2) The reaction was initiated by the addition of peptide substrate to a final concentration of 100 uM for truncated aggrecanase-1 and 50 uM for truncated aggrecanase-2. The assays were typically run for 60 minutes at room temperature and the slope of the kinetic increase in fluorescence was determined to calculate the rate of the reaction.
FIG. 2 illustrates the relative activities for the 56 different peptides, A1 to H7 (only every alternate peptide is numbered in FIG. 2) expressed in arbitrary, but relative units. […] Peptide D7 (16 amino acids) corresponds to the sequence within aggrecan containing the Glu373-Ala374 aggrecanase cleavage site.

aggrecanase-2 [2] = molecular target: T1, aggrecanase-2; experiment: Kinetic analysis of aggrecanase-2 peptide cleavage (Km, Vm); details: aggrecanase-2, 60 minutes at room temperature, non-linear fitting; for Vm: rfu = relative fluorescence units
Procedure: To confirm the screening assay, aggrecanase-2 was further analyzed for its rate of catalysis using 2 different peptides. The assay was performed by diluting the aggrecanase-2 in assay buffer (50 mM HEPES pH 7.5, 10 mM CaCl2, 0.1M NaCl and 0.05% Brij-35). […] The assay was run for 60 minutes at room temperature. FIG. 3 illustrates the proteolytic activity (in relative fluorescence units per minute) as a function of peptide concentration for peptides FasL1 and 29CD23. The curves were fitted to the data with the program Grafit (Erithacus Software Lmited). The Vmax and Km for each substrate were calculated by non-linear fitting of the data. The cleavage site for aggrecanase-2 within each peptide was determined by LC-MS analysis to be between a glutamic acid and leucine residues in each case, as indicated in Table 2 by a carot within each peptide sequence. […] However, these are clearly not the only requirements for efficient cleavage, as a number of the 56 peptides tested have similar residues and were not cleaved by the aggrecanases.

MMP7 = molecular target: T4, MMP7 (Homo sapiens, UniProt P09237); experiment: Similar peptide substrate screening assay with MMP7; details: similar screening assays
T4 construct: purchased Chemicon CC1059
T4 sequence (P09237 95-267): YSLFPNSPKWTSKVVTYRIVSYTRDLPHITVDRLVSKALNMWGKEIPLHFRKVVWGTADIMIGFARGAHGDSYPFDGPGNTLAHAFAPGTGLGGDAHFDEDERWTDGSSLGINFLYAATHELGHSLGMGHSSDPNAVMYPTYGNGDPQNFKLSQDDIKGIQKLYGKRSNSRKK

MMP13 = molecular target: T5, MMP13 (Homo sapiens, UniProt P45452); experiment: Similar peptide substrate screening assay with MMP13; details: similar screening assays
T5 construct: purchased Chemicon CC068

truncated aggrecanase-1 = molecular target: T6, truncated aggrecanase-1 (Homo sapiens, UniProt O75173); experiment: FRET peptide substrate screening, truncated aggrecanase-1; details: peptide 100 uM, 60 minutes at room temperature
T6 construct: made in house; host or cells: Sf9 cells (baculovirus, pFastBac1)
T6 sequence (O75173 213-437): T2 sequence (O75173 213-437)
Source text: as §1, with “The assay was performed by diluting the truncated aggrecanase-1 (approximately 2.5 to 5 μg of protein, 85 to 167 picomoles, SEQ ID NO:8) or truncated aggrecanase-2 (approximately 0.5 to 1 μg of protein, 17 to 33 picomoles, SEQ ID NO:9), in assay buffer (50 mM HEPES pH 7.5, 10 mM CaCl2, 0.1M NaCl and 0.05% (w/v) Brij-35 detergent (Sigma).” left out
as §2, with “reaction. […]” for “reaction.”

IC50 (aggrecanase-2 [1]) [nM] | inhibition of aggrecanase-1 enzyme activity (FIG. 4A) (Aggrecanase-1) | relative activity of truncated aggrecanase-2 for the peptide (FIG. 2) (truncated aggrecanase-2) | Km (aggrecanase-2 [2]) [µM] | Vm (aggrecanase-2 [2]) [rfu/min] | Molecule | relative activity of truncated aggrecanase-1 for the peptide (FIG. 2) (truncated aggrecanase-1) | further results
118 ± 5 | completely inhibited |  |  |  | CC(C)C[C@@H](CC(=O)NO)C(=O)N[C@@H](CC(C)C)c1ncc(-c2ccccc2)[nH]1 [Inhibitor A] |  | 
38 ± 8 | completely inhibited |  |  |  | CC(C)(C)C(NC(=O)C(Cc1ccc2ccccc2c1)[C@H](O)C(=O)NO)C(N)=O (stereo partly shown) [Inhibitor B] |  | 
102 ± 23 |  |  |  |  | CC(C)C[C@@H](CC(=O)NO)C(=O)N[C@@H](Cc1ccc2ccccc2c1)C(=O)N[C@@H](C)C(N)=O [Inhibitor C, TAPI-0] |  | 
 |  | high activity | 40 | 0.6 | (Aedans)EADLSSFKSQEL(Dabcyl)K-amide (EADLSSFKSQELK(Dabcyl′)-NH2; not fully specified (residue 1, N-terminus); printed as (Aedans)EADLSSFKSQEL(Dabcyl)K-amide; also: Aedans label on N-terminal Glu (N-terminus or side chain not given here)) [Peptide 29CD23] |  | 
 |  | highest activity | 80 | 2.8 | (Aedans)EKELAELRESTS(Dabcyl)K-amide (EKELAELRESTSK(Dabcyl′)-NH2; not fully specified (residue 1, N-terminus); printed as (Aedans)EKELAELRESTS(Dabcyl)K-amide; also: Aedans label on N-terminal Glu (N-terminus or side chain not given here)) [FasL1] | highest activity | suitability as substrate for MMP7 (MMP7): suitable substrate; suitability as substrate for MMP13 (MMP13): suitable substrate

Molecule | IC50 (aggrecanase-2 [1]) [nM] | inhibition of aggrecanase-1 enzyme activity (FIG. 4A) (Aggrecanase-1) | relative activity of truncated aggrecanase-2 for the peptide (FIG. 2) (truncated aggrecanase-2) | Km (aggrecanase-2 [2]) [µM] | Vm (aggrecanase-2 [2]) [rfu/min] | relative activity of truncated aggrecanase-1 for the peptide (FIG. 2) (truncated aggrecanase-1) | further results
(Aedans)ERNITEGEARGSVIL(Dabcyl)K-amide (ERNITEGEARGSVILK(Dabcyl′)-NH2; not fully specified (residue 1, N-terminus); printed as (Aedans)ERNITEGEARGSVIL(Dabcyl)K-amide; also: Aedans label on N-terminal Glu (N-terminus or side chain not given here)) [Peptide D7] |  |  | Neither truncated aggrecanase-1 nor truncated aggrecanase-2 showed any activity |  |  | Neither truncated aggrecanase-1 nor truncated aggrecanase-2 showed any activity | 
